According to publication PMC7137648 (2020):

B1: SR-F1(20-221) (domain or fragment)
chain: SELDPKGQHVCVASSPSAELQCCAGWRQKDQECTIPICEGPDACQKDEVCVKPGLCRCKPGFFGAHCSSRCPGQYWGPDCRESCPCHPHGQCEPATGACQCQADRWGARCEFPCACGPHGRCDPATGVCHCEPGWWSSTCRRPCQCNTAAARCEQATGACVCKPGWWGRRCSFRCNCHGSPCEQDSGRCACRPGWWGPECQQLIK
B2: SR-F1(20-421), recombinant soluble SR-F1 ectodomain (domain or fragment)
chain: SELDPKGQHVCVASSPSAELQCCAGWRQKDQECTIPICEGPDACQKDEVCVKPGLCRCKPGFFGAHCSSRCPGQYWGPDCRESCPCHPHGQCEPATGACQCQADRWGARCEFPCACGPHGRCDPATGVCHCEPGWWSSTCRRPCQCNTAAARCEQATGACVCKPGWWGRRCSFRCNCHGSPCEQDSGRCACRPGWWGPECQQQCECVRGRCSAASGECTCPPGFRGARCELPCPAGSHGVQCAHSCGRCKHNEPCSPDTGSCESCEPGWNGTQCQQPCLPGTFGESCEQQCPHCRHGEACEPDTGHCQRCDPGWLGPRCEDPCPTGTFGEDCGSTCPTCVQGSCDTVTGDCVCSAGYWGPSCNASCPAGFHGNNCSVPCECPEGLCHPVSGSCQPGSGSRDTLIK
modifications: N-linked glycans at Asn 289, 382 and 393
B3: SR-F1(20-353) (domain or fragment)
chain: SELDPKGQHVCVASSPSAELQCCAGWRQKDQECTIPICEGPDACQKDEVCVKPGLCRCKPGFFGAHCSSRCPGQYWGPDCRESCPCHPHGQCEPATGACQCQADRWGARCEFPCACGPHGRCDPATGVCHCEPGWWSSTCRRPCQCNTAAARCEQATGACVCKPGWWGRRCSFRCNCHGSPCEQDSGRCACRPGWWGPECQQQCECVRGRCSAASGECTCPPGFRGARCELPCPAGSHGVQCAHSCGRCKHNEPCSPDTGSCESCEPGWNGTQCQQPCLPGTFGESCEQQCPHCRHGEACEPDTGHCQRCDPGWLGPRCEDPCPTGTFGEDCGSLIK
modifications: N-linked glycan at Asn 289

Target: complement protein C1q (human, UniProt P02745 23-245; P02746 28-253; P02747 29-245)
Test: SPR

Chain of complement protein C1q (P02745 23-245, chain 1 of 3): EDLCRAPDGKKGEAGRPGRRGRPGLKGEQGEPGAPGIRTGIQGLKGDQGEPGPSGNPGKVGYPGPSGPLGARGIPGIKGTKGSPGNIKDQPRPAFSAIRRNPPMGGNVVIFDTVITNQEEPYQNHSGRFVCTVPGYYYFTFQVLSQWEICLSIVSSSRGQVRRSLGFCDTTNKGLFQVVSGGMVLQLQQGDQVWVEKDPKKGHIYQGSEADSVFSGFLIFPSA
Chain of complement protein C1q (P02746 28-253, chain 2 of 3): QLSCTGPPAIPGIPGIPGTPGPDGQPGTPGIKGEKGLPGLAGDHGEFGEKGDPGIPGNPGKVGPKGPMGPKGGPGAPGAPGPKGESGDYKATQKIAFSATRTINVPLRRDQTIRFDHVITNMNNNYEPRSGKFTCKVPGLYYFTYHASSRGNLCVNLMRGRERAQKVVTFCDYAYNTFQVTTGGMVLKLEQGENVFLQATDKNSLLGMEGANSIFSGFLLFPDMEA
Chain of complement protein C1q (P02747 29-245, chain 3 of 3): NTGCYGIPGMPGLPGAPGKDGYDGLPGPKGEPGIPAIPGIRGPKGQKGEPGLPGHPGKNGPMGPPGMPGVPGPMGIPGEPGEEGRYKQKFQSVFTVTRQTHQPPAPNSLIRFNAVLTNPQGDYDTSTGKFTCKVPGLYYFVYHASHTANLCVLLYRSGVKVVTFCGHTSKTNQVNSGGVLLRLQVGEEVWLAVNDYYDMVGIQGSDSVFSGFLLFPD

Binder	Kd [µM]
B1	0.019
B2	0.154
B3	0.042
